Test results published in US20240376170A1 (BRIGHT PEAK THERAPEUTICS, published 2024).
Bridges are numbered along the chain shown (N, C = ends). Primed or numbered codes have the meaning given here. [ ]: non-standard residue; d: D form. 8x polyethylene glycol‑amino = O-(8x polyethylene glycol-amino)-tyrosine, SITE 45; 9x polyethylene glycol‑azido = O-(9x polyethylene glycol-azido)-tyrosine, SITE 42; Ygp = O-(8x polyethylene glycol-amino)-tyrosine (Tyr, amino-capped PEG8); Yn3 = O-(9x polyethylene glycol-azido)-tyrosine (Tyr, azide-capped PEG9); Ygp″ = O-(8x polyethylene glycol-amino)-tyrosine; Yn3″ = O-(9x polyethylene glycol-azido)-tyrosine; PEG16′ = 16x polyethylene glycol; PEG24′ = 24x polyethylene glycol; Ygp(6) = Tyr, amino-capped PEG8; Yn3(6) = Tyr, azide-capped PEG9; PEG4′ = 4x polyethylene glycol; hSer = N[C@@H](CCO)C(=O)O; Nle = CCCC[C@H](N)C(=O)O

T1: IL-2Rβγ on HEK-Blue IL-2Rβγ reporter cells (InvivoGen) (UniProt P14784 27-551; P31785 23-369, limits assumed)
T1 sequence (looked up) 1: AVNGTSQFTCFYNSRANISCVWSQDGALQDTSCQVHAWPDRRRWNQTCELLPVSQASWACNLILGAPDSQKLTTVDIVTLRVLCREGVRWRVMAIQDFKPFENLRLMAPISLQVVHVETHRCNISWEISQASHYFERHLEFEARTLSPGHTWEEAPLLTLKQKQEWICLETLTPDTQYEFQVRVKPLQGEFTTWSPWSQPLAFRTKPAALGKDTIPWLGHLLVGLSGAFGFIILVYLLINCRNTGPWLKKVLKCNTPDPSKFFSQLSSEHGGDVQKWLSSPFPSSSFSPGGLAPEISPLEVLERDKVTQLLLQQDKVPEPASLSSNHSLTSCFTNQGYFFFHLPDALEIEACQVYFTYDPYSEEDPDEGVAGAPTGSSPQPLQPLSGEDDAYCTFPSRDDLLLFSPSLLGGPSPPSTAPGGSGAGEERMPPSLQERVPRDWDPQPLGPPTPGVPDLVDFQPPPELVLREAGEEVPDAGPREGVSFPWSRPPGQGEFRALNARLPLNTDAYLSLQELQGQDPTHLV
T1 sequence (looked up) 2: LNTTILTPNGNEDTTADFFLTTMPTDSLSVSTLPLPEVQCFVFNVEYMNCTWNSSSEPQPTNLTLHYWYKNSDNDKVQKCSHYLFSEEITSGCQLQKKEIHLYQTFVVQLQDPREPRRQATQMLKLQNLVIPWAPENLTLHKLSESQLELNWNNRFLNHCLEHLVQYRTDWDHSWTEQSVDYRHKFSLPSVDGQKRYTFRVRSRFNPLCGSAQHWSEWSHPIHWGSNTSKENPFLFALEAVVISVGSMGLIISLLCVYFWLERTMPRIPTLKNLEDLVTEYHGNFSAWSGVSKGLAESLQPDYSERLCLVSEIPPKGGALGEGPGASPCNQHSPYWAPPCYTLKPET

T2: IL-2 receptor βγ complex (human, UniProt P14784 27-551; P31785 23-369)
T2 sequence (looked up) 1: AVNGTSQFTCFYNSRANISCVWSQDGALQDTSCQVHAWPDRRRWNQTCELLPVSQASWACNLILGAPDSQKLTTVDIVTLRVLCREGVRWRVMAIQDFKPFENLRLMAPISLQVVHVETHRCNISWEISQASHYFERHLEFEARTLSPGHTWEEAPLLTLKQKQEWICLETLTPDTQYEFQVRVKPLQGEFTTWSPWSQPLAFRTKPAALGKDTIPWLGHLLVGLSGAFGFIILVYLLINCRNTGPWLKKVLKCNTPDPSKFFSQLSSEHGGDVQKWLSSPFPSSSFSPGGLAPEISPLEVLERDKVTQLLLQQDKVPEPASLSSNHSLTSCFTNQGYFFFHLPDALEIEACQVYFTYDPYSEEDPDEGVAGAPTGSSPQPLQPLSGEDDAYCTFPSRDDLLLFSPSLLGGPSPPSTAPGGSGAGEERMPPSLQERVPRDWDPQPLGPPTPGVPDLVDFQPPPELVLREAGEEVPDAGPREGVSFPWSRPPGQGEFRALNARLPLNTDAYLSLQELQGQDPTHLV
T2 sequence (looked up) 2: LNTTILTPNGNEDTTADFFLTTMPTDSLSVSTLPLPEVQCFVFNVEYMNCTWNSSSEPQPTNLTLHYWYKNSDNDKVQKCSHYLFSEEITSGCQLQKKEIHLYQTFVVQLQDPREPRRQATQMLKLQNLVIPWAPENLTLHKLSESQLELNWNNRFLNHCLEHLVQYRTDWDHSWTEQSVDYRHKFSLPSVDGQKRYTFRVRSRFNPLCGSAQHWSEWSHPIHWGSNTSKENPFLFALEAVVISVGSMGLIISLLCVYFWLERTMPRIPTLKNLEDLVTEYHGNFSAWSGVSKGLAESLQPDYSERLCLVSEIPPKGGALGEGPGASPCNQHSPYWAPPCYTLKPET


Each binder was assayed against T1, IL-2Rβγ on HEK-Blue IL-2Rβγ reporter … (assay: cell-based or functional assay).

| Binder | Average EC50, HEK-Blue IL-2R (CD122+, CD132+) Reporter Assay, Matriptase cleaved molecule [nM] | Average EC50, HEK-Blue IL-2R (CD122+, CD132+) Reporter Assay, intact molecule [nM] | Average EC50, HEK-Blue IL-2R (CD122+, CD132+) Reporter Assay, MMP2 cleaved molecule [nM] | Average EC50, HEK-Blue IL-2R (CD122+, CD132+) Reporter Assay, uPa cleaved molecule [nM] |
| --- | --- | --- | --- | --- |
| CMP-330, uPa cleaved (ligand, not fully specified; also: before the cut Lys9 and Glu23 side chains are bridged by a peptide linker, what remains after the cut not given here) APTSSSTKKTQLQLEHLLLDLQEILNGINNYKNPKLTR[Nle]L[hSer]Y(9x polyethylene glycol‑azido)KFY(8x polyethylene glycol‑amino)[Nle]PKKATELKHLQCLEEELKPLEEVL[hSer]LAQSKNFHLRPRDLISNINVIVLELKGSETTF[hSer]CEYADETATIVEFLNRWITFSQSIISTLT | – | – | – | 1.73 |
| CMP-321, matriptase cleaved (ligand, not fully specified (bridges)) SGRVQPLVDAPTSSSTKKTQLQLEHLLLDLQEILNGINNYKNPKLTR[Nle]L[hSer][Yn3(6)]KF[Ygp(6)][Nle]PKKATELKHLQCLEEELKPLEEVL[hSer]LAQSKNFHLRPRDLISNINVIVLELKGSETTF[hSer]CEYADETATIVEFLNRWITFSQSIISTLT | 4.22 | – | – | – |
| CMP-316, matriptase cleaved (ligand, ends and bridges not checked; also: further groups not given here, tested after matriptase cleavage, remaining product not given here) APTSSSTKKTQLQLEHLLLDLQKILNGINNYKNPKLTR[Nle]L[hSer][Yn3]KF[Ygp][Nle]PKKATELKHLQCLEEELKPLEEVL[hSer]LAQSKNFHLRPRDLISNINVIVLELKGSETTF[hSer]CEYADETATIVEFLNRWITFSQSIISTLT | 0.0828 | – | – | – |
| CMP-315, uPa cleaved (ligand, ends and bridges not checked; also: further groups not given here, tested after uPa cleavage, remaining product not given here) APTSSSTKKTQLQLEHLLLDLQKILNGINNYKNPKLTR[Nle]L[hSer][Yn3]KF[Ygp][Nle]PKKATELKHLQCLEEELKPLEEVL[hSer]LAQSKNFHLRPRDLISNINVIVLELKGSETTF[hSer]CEYADETATIVEFLNRWITFSQSIISTLT | – | – | – | 0.0581 |
| CMP-328, matriptase cleaved (ligand, also: matriptase-cleaved, before the cut Lys9-Glu23 side chains bridged by peptide linker, product not given here) APTSSSTKKTQLQLEHLLLDLQEILNGINNYKNPKLTR[Nle]L[hSer][Yn3]KF[Ygp][Nle]PKKATELKHLQCLEEELKPLEEVL[hSer]LAQSKNFHLRPRDLISNINVIVLELKGSETTF[hSer]CEYADETATIVEFLNRWITFSQSIISTLT | 0.352 | – | – | – |
| CMP-316, uPa cleaved (ligand, ends and bridges not checked; also: further groups not given here, tested after uPa cleavage, remaining product not given here) APTSSSTKKTQLQLEHLLLDLQKILNGINNYKNPKLTR[Nle]L[hSer][Yn3]KF[Ygp][Nle]PKKATELKHLQCLEEELKPLEEVL[hSer]LAQSKNFHLRPRDLISNINVIVLELKGSETTF[hSer]CEYADETATIVEFLNRWITFSQSIISTLT | – | – | – | 0.0884 |

Second part, the binder after the results:

| Average EC50, HEK-Blue IL-2R (CD122+, CD132+) Reporter Assay, Matriptase cleaved molecule [nM] | Average EC50, HEK-Blue IL-2R (CD122+, CD132+) Reporter Assay, intact molecule [nM] | Average EC50, HEK-Blue IL-2R (CD122+, CD132+) Reporter Assay, MMP2 cleaved molecule [nM] | Average EC50, HEK-Blue IL-2R (CD122+, CD132+) Reporter Assay, uPa cleaved molecule [nM] | Binder |
| --- | --- | --- | --- | --- |
| 2.15 | – | – | – | CMP-330, matriptase cleaved (ligand, not fully specified; also: before the cut Lys9 and Glu23 side chains are bridged by a peptide linker, what remains after the cut not given here) APTSSSTKKTQLQLEHLLLDLQEILNGINNYKNPKLTR[Nle]L[hSer]Y(9x polyethylene glycol‑azido)KFY(8x polyethylene glycol‑amino)[Nle]PKKATELKHLQCLEEELKPLEEVL[hSer]LAQSKNFHLRPRDLISNINVIVLELKGSETTF[hSer]CEYADETATIVEFLNRWITFSQSIISTLT |
| – | 0.711 | – | – | CMP-300 (ligand, lactam N-31; ends not checked) GPLGLAG[PEG4′]APTSSSTKKTQLQLEHLLLDLQEILNGINNYKNPKLTR[Nle]L[hSer][Yn3″]KF[Ygp″][Nle]PKKATELKHLQCLEEELKPLEEVL[hSer]LAQSKNFHLRPRDLISNINVIVLELKGSETTF[hSer]CEYADETATIVEFLNRWITFSQSIISTLT |
| – | – | 0.0094 | – | CMP-300, MMP2 cleaved (ligand, ends and bridges not checked; also: MMP2 cleaved, ring opened, cut site and remnants not given here) APTSSSTKKTQLQLEHLLLDLQEILNGINNYKNPKLTR[Nle]L[hSer][Yn3″]KF[Ygp″][Nle]PKKATELKHLQCLEEELKPLEEVL[hSer]LAQSKNFHLRPRDLISNINVIVLELKGSETTF[hSer]CEYADETATIVEFLNRWITFSQSIISTLT |
| – | – | – | 1.41 | CMP-329, uPa cleaved (ligand, ends and bridges not checked; also: uPa-cleaved, cut in the RQRRSVVGG bridge between Lys9 and Glu23, remaining fragments not given here) APTSSSTKKTQLQLEHLLLDLQEILNGINNYKNPKLTR[Nle]L[hSer][Yn3″]KF[Ygp″][Nle]PKKATELKHLQCLEEELKPLEEVL[hSer]LAQSKNFHLRPRDLISNINVIVLELKGSETTF[hSer]CEYADETATIVEFLNRWITFSQSIISTLT |
| 1.47 | – | – | – | CMP-329, matriptase cleaved (ligand, ends and bridges not checked; also: after matriptase cleavage, remnants of the Lys9–Glu23 peptide linker not given here) APTSSSTKKTQLQLEHLLLDLQEILNGINNYKNPKLTR[Nle]L[hSer][Yn3″]KF[Ygp″][Nle]PKKATELKHLQCLEEELKPLEEVL[hSer]LAQSKNFHLRPRDLISNINVIVLELKGSETTF[hSer]CEYADETATIVEFLNRWITFSQSIISTLT |
| – | – | – | 0.571 | CMP-328, uPa cleaved (ligand, also: uPa-cleaved, before the cut Lys9-Glu23 side chains bridged by peptide linker, product not given here) APTSSSTKKTQLQLEHLLLDLQEILNGINNYKNPKLTR[Nle]L[hSer][Yn3]KF[Ygp][Nle]PKKATELKHLQCLEEELKPLEEVL[hSer]LAQSKNFHLRPRDLISNINVIVLELKGSETTF[hSer]CEYADETATIVEFLNRWITFSQSIISTLT |

The binders below were run against T2, IL-2 receptor βγ complex (assay: cell-based or functional assay).

| Average EC50, pSTAT5 Assay (T cells) [nM] | Binder |
| --- | --- |
| 27.1 | CMP-137 (ligand, bridge (positions not given here); not fully specified (bridges); ends not checked) [PEG24′]PLGLAG[PEG24′]APTSSSTKKTQLQLEHLLLDLQ[Nle]ILNGIENYKNPKLTR[Nle]L[hSer][Yn3]KF[Ygp][Nle]PKKATELKHLQCLEEELKPLEEVL[hSer]LAQSKNFHLRPRDLISNINVIVLELKGSETTF[hSer]CEYADETATIVEFLNRWITFSQSIISTLT |
| 4.09 | CMP-137, MMP2 cleaved molecule (ligand, ends and bridges not checked; also: cleaved by MMP2, cleavage product not defined, N-terminal PEG24 link and Glu29 side-chain attachment of the cleavable peptide not defined) APTSSSTKKTQLQLEHLLLDLQ[Nle]ILNGIENYKNPKLTR[Nle]L[hSer][Yn3]KF[Ygp][Nle]PKKATELKHLQCLEEELKPLEEVL[hSer]LAQSKNFHLRPRDLISNINVIVLELKGSETTF[hSer]CEYADETATIVEFLNRWITFSQSIISTLT |
| 21.3 | CMP-139 (ligand, bridge (positions not given here); not fully specified (bridges); ends not checked) [PEG16′]SGGPGPAGMKGLPGS[PEG16′]APTSSSTKKTQLQLEHLLLDLQ[Nle]ILNGIENYKNPKLTR[Nle]L[hSer][Yn3]KF[Ygp][Nle]PKKATELKHLQCLEEELKPLEEVL[hSer]LAQSKNFHLRPRDLISNINVIVLELKGSETTF[hSer]CEYADETATIVEFLNRWITFSQSIISTLT |
